# From the supplement of paper PMC10065799, “High-throughput profiling of sequence recognition by tyrosine kinases and SH2 domains using bacterial peptide display” (eLife, 2023)
# Columns and labels:
# [1] = biological target: SHP2-C SH2; assay: SH2 binding enrichment of the phosphorylated peptide, bacterial display (enrichment ratio); higher = better substrate or ligand; peptides without Tyr show the background
# [2] = biological target: c-Src SH2; assay: as above
# [3] = biological target: Grb2 SH2 (UniProt P62993); assay: as above
# [4] = biological target: EPHB1 (UniProt P54762); assay: phosphorylation enrichment, bacterial display (enrichment ratio); higher = better substrate or ligand; peptides without Tyr show the background
# [5] = biological target: Fes (UniProt P07332); assay: as above
# [6] = biological target: MERTK (UniProt Q12866); assay: as above
# [7] = tested on: c-Abl (mouse); assay: as above
# [8] = biological target: Fyn (UniProt P06241); assay: as above
# [9] = biological target: EPHB2 (UniProt P29323); assay: as above
# [10] = biological target: Jak2 (UniProt O60674); assay: as above
# [11] = biological target: Hck (UniProt P08631); assay: as above
# [12] = tested on: AncSZ; assay: as above
# [13] = tested on: c-Src; assay: as above
# [14] = biological target: FGFR3 (UniProt P22607); assay: as above
# [15] = tested on: Fer (mouse); assay: as above
# [16] = biological target: FGFR1 (UniProt P11362); assay: as above
# 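For SH2 binding enrichment of the phosphorylated peptide, bacterial display in this document: peptide library displayed on the E. coli surface as eCPX fusions, selected cells deep-sequenced, score is each peptide's frequency after selection divided by its frequency in the input.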
# 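For phosphorylation enrichment, bacterial display in this document: 11-residue human phosphosite peptides and single-mutation variants displayed on the E. coli surface, counted by deep sequencing, each peptide's frequency after selection divided by its frequency in the unselected input library; frequency after pTyr selection over input frequency; kinase dosed for 20-30% of maximal phosphorylation in three min.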
# Chain of Fyn (P06241 whole entry, looked up): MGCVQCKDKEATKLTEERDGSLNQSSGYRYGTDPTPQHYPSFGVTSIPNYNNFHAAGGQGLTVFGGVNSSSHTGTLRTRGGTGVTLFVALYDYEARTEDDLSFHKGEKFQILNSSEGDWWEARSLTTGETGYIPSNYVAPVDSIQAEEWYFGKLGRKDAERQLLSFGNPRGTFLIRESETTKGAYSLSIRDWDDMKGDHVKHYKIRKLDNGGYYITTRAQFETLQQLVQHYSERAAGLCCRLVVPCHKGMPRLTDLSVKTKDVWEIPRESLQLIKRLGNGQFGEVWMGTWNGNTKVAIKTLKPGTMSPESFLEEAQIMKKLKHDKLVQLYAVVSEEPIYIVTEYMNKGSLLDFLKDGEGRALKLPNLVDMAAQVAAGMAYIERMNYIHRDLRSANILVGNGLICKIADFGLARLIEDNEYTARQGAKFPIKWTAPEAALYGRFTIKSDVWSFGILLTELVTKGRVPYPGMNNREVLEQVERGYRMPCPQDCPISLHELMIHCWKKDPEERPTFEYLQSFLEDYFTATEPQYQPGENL
# Chain of FGFR1 (P11362 whole entry, looked up, the tested form may be a part): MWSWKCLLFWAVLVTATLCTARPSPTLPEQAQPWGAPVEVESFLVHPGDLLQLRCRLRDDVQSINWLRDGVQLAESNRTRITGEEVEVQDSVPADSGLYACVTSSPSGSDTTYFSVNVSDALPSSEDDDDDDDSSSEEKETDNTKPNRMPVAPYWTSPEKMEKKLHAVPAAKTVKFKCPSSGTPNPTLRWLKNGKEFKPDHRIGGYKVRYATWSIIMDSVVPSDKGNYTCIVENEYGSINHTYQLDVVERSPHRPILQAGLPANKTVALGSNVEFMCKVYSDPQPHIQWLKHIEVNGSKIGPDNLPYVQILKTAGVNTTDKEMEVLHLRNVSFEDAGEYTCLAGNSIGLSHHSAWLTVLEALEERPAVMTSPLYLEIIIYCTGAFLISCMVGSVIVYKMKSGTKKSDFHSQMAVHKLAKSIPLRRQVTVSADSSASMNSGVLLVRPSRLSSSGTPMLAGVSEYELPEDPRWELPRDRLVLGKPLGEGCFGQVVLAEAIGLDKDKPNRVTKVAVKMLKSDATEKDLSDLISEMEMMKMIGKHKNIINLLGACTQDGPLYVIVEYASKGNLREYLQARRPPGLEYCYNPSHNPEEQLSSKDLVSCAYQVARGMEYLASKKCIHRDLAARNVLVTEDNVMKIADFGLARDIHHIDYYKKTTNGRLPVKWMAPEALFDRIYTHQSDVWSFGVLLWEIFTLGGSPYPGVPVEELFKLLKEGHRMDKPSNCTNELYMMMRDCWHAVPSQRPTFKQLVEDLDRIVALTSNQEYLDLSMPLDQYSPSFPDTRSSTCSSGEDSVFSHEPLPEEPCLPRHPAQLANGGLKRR
# Chain of Jak2 (O60674 whole entry, looked up): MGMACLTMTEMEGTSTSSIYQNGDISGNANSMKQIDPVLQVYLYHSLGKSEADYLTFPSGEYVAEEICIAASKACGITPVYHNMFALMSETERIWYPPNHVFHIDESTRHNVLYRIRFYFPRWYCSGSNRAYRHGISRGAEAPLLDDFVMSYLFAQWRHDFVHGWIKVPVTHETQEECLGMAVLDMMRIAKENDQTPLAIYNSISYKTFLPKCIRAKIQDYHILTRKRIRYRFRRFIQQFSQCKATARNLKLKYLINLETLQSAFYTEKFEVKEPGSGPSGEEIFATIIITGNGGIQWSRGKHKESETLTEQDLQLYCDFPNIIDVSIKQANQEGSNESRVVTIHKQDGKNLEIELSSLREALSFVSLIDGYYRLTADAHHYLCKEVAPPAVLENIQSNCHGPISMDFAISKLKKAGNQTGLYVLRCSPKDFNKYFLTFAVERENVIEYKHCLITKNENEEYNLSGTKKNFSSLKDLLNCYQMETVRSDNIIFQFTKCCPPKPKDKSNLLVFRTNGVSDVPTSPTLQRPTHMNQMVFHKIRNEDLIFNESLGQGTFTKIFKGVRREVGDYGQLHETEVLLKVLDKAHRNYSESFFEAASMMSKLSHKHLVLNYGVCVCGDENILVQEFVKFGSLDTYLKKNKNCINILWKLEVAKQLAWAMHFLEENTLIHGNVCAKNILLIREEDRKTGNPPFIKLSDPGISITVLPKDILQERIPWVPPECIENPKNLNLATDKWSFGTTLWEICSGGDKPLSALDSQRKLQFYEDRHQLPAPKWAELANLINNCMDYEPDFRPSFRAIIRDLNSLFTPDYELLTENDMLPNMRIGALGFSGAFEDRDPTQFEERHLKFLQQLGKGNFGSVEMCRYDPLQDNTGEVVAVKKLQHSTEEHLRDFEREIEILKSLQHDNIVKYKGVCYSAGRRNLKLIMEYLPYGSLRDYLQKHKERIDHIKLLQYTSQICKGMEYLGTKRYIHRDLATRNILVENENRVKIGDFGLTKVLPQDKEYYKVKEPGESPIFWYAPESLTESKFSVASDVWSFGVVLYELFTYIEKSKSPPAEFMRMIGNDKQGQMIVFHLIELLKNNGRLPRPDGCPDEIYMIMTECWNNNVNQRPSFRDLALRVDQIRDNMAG
# Chain of EPHB2 (P29323 whole entry, looked up): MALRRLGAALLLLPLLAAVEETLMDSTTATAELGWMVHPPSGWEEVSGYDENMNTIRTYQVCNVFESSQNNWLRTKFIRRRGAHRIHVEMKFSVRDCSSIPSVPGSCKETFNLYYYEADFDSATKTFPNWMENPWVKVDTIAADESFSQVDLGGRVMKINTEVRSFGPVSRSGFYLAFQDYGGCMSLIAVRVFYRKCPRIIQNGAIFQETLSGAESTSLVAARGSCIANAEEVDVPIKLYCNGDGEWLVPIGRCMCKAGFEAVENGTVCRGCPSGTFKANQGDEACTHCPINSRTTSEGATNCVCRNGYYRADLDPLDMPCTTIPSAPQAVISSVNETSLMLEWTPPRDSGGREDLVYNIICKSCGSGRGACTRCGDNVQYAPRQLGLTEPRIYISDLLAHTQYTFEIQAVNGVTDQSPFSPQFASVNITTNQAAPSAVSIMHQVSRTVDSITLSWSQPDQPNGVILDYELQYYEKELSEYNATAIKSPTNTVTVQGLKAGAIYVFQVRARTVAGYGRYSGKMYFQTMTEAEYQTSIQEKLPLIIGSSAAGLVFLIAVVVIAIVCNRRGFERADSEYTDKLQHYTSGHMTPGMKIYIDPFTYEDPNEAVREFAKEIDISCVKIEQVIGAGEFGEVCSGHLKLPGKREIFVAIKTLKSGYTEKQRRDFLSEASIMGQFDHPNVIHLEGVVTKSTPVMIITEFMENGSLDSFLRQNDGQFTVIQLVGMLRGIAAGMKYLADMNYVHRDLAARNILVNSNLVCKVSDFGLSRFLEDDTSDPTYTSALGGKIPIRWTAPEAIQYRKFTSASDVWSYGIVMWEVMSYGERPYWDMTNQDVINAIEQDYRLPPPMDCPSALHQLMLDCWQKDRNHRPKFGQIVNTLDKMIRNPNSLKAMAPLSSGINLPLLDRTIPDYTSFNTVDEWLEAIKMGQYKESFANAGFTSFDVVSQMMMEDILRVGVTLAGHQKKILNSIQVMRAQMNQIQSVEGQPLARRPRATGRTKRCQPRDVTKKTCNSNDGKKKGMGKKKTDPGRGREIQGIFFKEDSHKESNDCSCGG
# Chain of Fes (P07332 whole entry, looked up): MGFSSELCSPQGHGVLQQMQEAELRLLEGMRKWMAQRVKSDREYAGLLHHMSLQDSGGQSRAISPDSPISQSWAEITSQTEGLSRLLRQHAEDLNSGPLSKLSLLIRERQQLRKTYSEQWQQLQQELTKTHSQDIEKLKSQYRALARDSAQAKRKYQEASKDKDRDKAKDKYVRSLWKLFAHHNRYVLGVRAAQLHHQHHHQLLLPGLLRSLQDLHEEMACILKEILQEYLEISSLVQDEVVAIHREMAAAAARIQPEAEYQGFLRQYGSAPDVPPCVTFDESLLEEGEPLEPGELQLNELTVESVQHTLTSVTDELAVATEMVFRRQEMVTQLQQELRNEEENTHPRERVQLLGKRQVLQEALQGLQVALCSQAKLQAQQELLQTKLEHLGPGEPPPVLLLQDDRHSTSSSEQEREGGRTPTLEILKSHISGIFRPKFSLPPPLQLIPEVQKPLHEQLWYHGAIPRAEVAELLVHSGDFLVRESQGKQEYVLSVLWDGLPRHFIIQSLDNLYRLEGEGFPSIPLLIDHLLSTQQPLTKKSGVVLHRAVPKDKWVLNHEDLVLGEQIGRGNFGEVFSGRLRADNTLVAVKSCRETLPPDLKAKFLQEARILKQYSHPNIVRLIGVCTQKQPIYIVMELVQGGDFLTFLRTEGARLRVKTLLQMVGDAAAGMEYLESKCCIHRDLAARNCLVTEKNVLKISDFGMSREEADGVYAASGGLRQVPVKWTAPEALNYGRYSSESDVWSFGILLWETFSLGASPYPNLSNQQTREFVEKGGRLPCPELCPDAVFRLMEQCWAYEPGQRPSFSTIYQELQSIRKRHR
# Chain of Hck (P08631 whole entry, looked up): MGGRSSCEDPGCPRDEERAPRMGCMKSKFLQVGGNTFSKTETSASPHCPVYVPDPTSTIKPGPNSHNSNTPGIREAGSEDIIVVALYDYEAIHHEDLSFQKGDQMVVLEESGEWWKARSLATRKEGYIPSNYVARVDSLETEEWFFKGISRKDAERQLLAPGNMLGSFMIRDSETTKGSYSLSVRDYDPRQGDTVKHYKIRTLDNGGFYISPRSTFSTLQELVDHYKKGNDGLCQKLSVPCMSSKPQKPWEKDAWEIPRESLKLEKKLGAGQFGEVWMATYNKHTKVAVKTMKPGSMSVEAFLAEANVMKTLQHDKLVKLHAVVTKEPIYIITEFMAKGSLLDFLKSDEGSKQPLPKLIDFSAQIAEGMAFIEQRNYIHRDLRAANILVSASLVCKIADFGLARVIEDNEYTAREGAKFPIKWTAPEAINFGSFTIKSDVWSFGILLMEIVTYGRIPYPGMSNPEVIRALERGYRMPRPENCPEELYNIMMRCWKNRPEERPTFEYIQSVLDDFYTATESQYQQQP
Sequence,SH2 binding enrichment [1],SH2 binding enrichment [2],SH2 binding enrichment [3],phosphorylation enrichment [4],phosphorylation enrichment [5],phosphorylation enrichment [6],phosphorylation enrichment [7],phosphorylation enrichment [8],phosphorylation enrichment [9],phosphorylation enrichment [10],phosphorylation enrichment [11],phosphorylation enrichment [12],phosphorylation enrichment [13],phosphorylation enrichment [14],phosphorylation enrichment [15],phosphorylation enrichment [16]
EATKVYLDDPT [G6PD_Y322_G321V],0.746,0.534,0.837,0.482,0.967,0.385,0.656,0.444,0.558,0.803,0.458,0.852,0.357,0.656,0.451,0.428
FPIDHYLGKEM [G6PD_Y202_R198P_YF],0.716,0.497,0.908,0.404,0.903,0.391,0.524,0.396,0.485,0.685,0.68,0.789,0.489,0.619,0.469,0.492
KFLENYLNCLL [PLD2_Y169_R172C_YF],1.61,1.25,1.45,0.748,1.17,0.461,0.91,0.497,0.676,1.23,0.474,1.23,0.572,0.859,0.532,0.759
AHAGKYGAEAL [HBA1_Y25_E24K],0.608,0.452,0.818,0.453,0.796,0.347,0.451,0.423,0.338,0.544,0.368,0.677,0.387,0.42,0.342,0.4
TLNVRYESVQA [CEACAM7_Y236],1.52,7.18,0.9,0.44,0.745,0.371,0.504,0.434,0.415,0.755,0.487,0.757,0.415,0.617,0.59,0.451
EDEGLYMVRVP [MYOM3_Y343],0.628,0.472,0.776,1.74,1.43,1.79,0.812,3.03,1.71,1.24,4.63,1.58,3.41,0.736,1.89,0.56
PFSNPYENSLI [EPOR_Y489_YF],0.501,4.88,15.5,0.92,1.48,0.675,1.18,1.04,0.929,3.41,0.848,1.92,1.01,1.02,2.23,0.964
SISLKYEGRVY [ABL1_Y167_R166K],0.66,0.388,0.814,0.663,1.38,0.451,0.983,0.47,0.747,1.24,0.507,1.13,0.511,0.897,0.499,0.51
PDMHSYVVRFN [GRIN2D_Y732_M733V_YF],1,1.25,1.29,0.658,1.04,0.531,0.873,0.467,0.464,1.81,0.431,0.882,0.553,0.797,0.411,0.78
KIIRWYVSSEG [ANK2_Y3907_R3906W],1.51,1.18,1.19,0.69,1.34,0.415,0.747,0.51,0.679,1.2,0.498,1.31,0.455,0.784,0.543,0.55
PSDPSYEDTRE [BMPR1A_Y467_M470T],1.52,1.73,1.77,0.765,2.73,0.827,1.71,0.887,0.883,2.37,1.19,1.66,1.14,1.18,0.894,0.813
TYAVSYLPDMS [FLNC_Y1602_T1599A],0.95,0.674,0.809,0.559,0.763,1.6,0.963,0.589,0.785,0.924,0.732,0.867,0.811,0.576,0.575,0.428
QELRRYLKSGV [MICA_Y194],0.384,0.465,0.764,0.765,0.787,0.544,0.659,0.553,0.875,0.566,0.957,0.652,0.577,0.804,0.626,0.582
WCSNDHLGMSR [ALAS2_Y199_Y199H],0.811,0.684,0.801,0.394,0.671,0.418,0.504,0.434,0.514,0.537,0.375,0.754,0.447,0.576,0.438,0.416
GNLLIYTEFGK [HGD_Y166],0.668,0.471,0.687,1.81,1.28,4.24,3.12,7.36,1.13,1.14,4.65,1.28,5.93,0.731,0.54,0.56

# Continued, in another order:
SH2 binding enrichment [1],SH2 binding enrichment [2],SH2 binding enrichment [3],Sequence,phosphorylation enrichment [4],phosphorylation enrichment [5],phosphorylation enrichment [6],phosphorylation enrichment [7],phosphorylation enrichment [8],phosphorylation enrichment [9],phosphorylation enrichment [10],phosphorylation enrichment [11],phosphorylation enrichment [12],phosphorylation enrichment [13],phosphorylation enrichment [14],phosphorylation enrichment [15],phosphorylation enrichment [16]
1.14,0.845,1.17,EILLSYLRTGY [TGM1_Y365],0.544,1.1,0.413,0.922,0.524,0.612,1.4,0.536,1.06,0.462,0.749,0.548,0.559
0.783,0.72,1.01,SNKLHYQLEQE [PDPR_Y110_Y109H],0.504,1,0.442,0.647,0.519,0.505,0.699,0.535,0.917,0.443,0.673,0.498,0.496
0.557,0.628,0.651,ATQDNYVLEVR [PTPRZ1_Y2179_D2178N],0.502,1.08,0.45,0.6,0.452,0.458,0.821,0.411,0.934,0.38,0.676,0.486,0.489
1.04,2.57,0.783,IQRSLYDCPAS [PDGFRA_Y762_R764C],2.37,0.973,3.85,1.47,0.732,2.5,0.825,2.25,1.38,0.81,0.706,4.18,0.592
0.967,0.759,0.817,KHTLSYVDVGT [SDHA_Y629],0.573,0.685,0.295,0.53,0.348,0.42,0.552,0.431,0.703,0.283,0.589,0.392,0.724
1.38,0.967,1.02,LEDEVCAQKMK [TPM2_Y261_Y261C],1.07,2.03,0.848,1.2,1.01,0.963,1.44,0.832,1.6,0.573,1.16,1.01,0.79
2.05,1.72,1.83,CTTIHFNYMCN [TP53_Y234_Y234F],0.488,0.74,0.397,0.458,0.432,0.501,0.628,0.427,0.68,0.519,0.553,0.572,0.534
0.714,0.346,0.646,GEEIKYMLWLS [OTC_Y55],0.592,1.28,0.703,1.19,0.493,0.62,1.21,0.645,1.24,0.518,0.934,0.745,0.682
0.533,0.537,1,SSQILYKLEQS [THADA_Y701_V699I],0.56,0.781,0.466,0.551,0.388,0.451,0.7,0.49,0.727,0.669,0.582,0.423,0.4
0.886,0.571,1.02,SVVVPCEPPEV [TP53_Y220_Y220C],0.534,1.18,0.459,0.834,0.438,0.671,1.04,0.517,0.998,0.481,0.678,0.525,0.517
0.344,0.456,0.532,KRRGPYEMSPS [PLPP7_Y172_T174M],0.323,0.452,0.402,0.508,0.387,0.371,0.459,0.445,0.58,0.45,0.377,0.345,0.338
1.61,1.29,1.63,LLVVLYKYRCF [PSEN1_Y154_Y159F],1.23,2.42,0.626,2.02,0.762,1.03,2.16,0.825,1.32,0.523,1.12,0.911,1.11
0.475,1.67,0.863,LEDPMYDIIRD [RP9_Y142_H137L],4.98,2.32,7.83,4.38,7.34,6.72,2.7,7.93,3.53,7.86,1.29,6.19,1.14
0.729,0.453,1,MEFAKYGSLRG [RET_Y809_V804M_YF],0.427,0.628,0.417,0.454,0.456,0.629,0.495,0.49,0.604,0.484,0.448,0.348,0.514
